Laboratory results reported in PMC11063955, “A multiplexed time-resolved fluorescence resonance energy transfer ultrahigh-throughput screening assay for targeting the SMAD4–SMAD3–DNA complex” (Journal of Molecular Cell Biology, 2023).

What was measured:
Conditions in all cases: remark: other sources report otherwise
[1] = biological target: T1, His-tagged SMAD4 WT (Mothers against decapentaplegic homolog 4), Q13485; test: AlphaScreen or HTRF; multiplexed TR-FRET, PPI read-out (Tb-D2), lysate of HEK293T cells co-expressing His-SMAD4 and Flag-SMAD3 with point-mutated 5'-FAM-SBE4 Mut dsDNA in place of the WT dsDNA
T1 chain: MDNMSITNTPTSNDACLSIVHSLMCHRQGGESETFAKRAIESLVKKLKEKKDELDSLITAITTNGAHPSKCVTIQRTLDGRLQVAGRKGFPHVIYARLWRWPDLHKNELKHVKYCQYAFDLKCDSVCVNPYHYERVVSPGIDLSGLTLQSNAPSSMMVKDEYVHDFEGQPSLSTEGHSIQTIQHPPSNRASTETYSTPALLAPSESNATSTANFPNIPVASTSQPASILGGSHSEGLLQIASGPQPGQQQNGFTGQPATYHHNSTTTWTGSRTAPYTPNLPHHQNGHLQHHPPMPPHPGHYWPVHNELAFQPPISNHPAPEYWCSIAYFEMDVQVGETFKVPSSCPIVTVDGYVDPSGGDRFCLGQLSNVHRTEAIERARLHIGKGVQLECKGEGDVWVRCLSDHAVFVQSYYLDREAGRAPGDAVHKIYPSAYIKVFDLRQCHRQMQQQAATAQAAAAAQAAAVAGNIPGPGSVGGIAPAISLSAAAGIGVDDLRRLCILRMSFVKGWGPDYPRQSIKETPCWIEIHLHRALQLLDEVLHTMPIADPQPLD

[2] = biological target: T2, His-tagged SMAD4 R361C, Q13485; test: AlphaScreen or HTRF; multiplexed TR-FRET, PPI read-out (Tb-D2), lysate of HEK293T cells co-expressing His-SMAD4 and Flag-SMAD3 (WT or mutated) with 5'-FAM-SBE4 WT dsDNA; anti-FLAG M2-Tb cryptate and anti-6xHis-D2 antibodies; FRET buffer 20 mM Tris-HCl pH 7.0, 50 mM NaCl, 0.01% NP-40; 4°C for 30 min
T2 chain: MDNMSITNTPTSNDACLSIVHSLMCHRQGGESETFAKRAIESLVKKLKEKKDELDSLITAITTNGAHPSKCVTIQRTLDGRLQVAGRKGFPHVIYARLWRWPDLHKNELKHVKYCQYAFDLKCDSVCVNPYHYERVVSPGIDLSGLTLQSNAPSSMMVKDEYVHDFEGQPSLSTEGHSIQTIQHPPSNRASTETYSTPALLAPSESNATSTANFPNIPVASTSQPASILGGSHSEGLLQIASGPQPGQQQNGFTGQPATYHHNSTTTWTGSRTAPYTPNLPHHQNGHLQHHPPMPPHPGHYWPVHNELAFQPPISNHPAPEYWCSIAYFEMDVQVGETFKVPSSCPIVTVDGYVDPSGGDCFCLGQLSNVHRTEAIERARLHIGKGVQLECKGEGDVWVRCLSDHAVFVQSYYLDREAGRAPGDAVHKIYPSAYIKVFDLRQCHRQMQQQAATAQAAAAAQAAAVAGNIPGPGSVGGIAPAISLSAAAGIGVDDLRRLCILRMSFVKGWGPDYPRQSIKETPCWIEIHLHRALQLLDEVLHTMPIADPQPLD

[3] = biological target: T3, His-tagged SMAD4 R361H, Q13485; test: as above
T3 chain: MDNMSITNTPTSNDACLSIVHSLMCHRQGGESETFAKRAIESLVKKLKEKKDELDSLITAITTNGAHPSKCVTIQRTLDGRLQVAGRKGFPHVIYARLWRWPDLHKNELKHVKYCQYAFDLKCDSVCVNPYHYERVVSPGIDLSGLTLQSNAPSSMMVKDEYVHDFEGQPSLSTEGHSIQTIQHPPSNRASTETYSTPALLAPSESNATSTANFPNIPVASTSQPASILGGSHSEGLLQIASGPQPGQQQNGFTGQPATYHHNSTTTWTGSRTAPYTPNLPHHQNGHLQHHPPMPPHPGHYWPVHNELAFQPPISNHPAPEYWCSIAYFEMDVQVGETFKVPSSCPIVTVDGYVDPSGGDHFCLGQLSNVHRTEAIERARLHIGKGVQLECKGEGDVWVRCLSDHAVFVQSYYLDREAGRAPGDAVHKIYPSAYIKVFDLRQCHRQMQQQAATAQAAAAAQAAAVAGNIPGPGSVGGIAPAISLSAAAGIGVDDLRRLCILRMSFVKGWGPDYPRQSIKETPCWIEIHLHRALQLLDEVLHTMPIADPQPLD

B1: Flag-tagged SMAD3 WT, P84022 1-425 (natural protein)
chain: MSSILPFTPPIVKRLLGWKKGEQNGQEEKWCEKAVKSLVKKLKKTGQLDELEKAITTQNVNTKCITIPRSLDGRLQVSHRKGLPHVIYCRLWRWPDLHSHHELRAMELCEFAFNMKKDEVCVNPYHYQRVETPVLPPVLVPRHTEIPAEFPPLDDYSHSIPENTNFPAGIEPQSNIPETPPPGYLSEDGETSDHQMNHSMDAGSPNLSPNPMSPAHNNLDLQPVTYCEPAFWCSISYYELNQRVGETFHASQPSMTVDGFTDPSNSERFCLGLLSNVNRNAAVELTRRHIGRGVRLYYIGGEVFAECLSDSAIFVQSPNCNQRYGWHPATVCKIPPGCNLKIFNNQEFAALLAQSVNQGFEAVYQLTRMCTIRMSFVKGWGAEYRRQTVTSTPCWIELHLNGPLQWLDKVLTQMGSPSIRCSSVS
- decrease of the PPI signal with 5'-FAM-SBE4 Mut dsDNA against WT dsDNA [1]: 15%
- reduction of the PPI signal against SMAD4 WT [2]: 75%
- reduction of the PPI signal against SMAD4 WT [3]: 75%
